In patent US20240376190A1 (Chugai, published 2024):
Where a chain is given by its changes, count along the chain named. Values belong to the binder of their own block, whether it stands above or below them.

How the values were obtained:
[1] = target: T1, FLAG-tagged human latent TGF-beta 1 (human, UniProt P01137 34-390); assay: SPR (BIACORE 8K), antibody captured on anti-human Fc, antigen as analyte, pH 7.4
T1 construct: Co-expressed with human furin, purified on anti-FLAG resin and by gel filtration; also called human latent TGF-beta 1 (SLC); hSLC
Experimental: (§1) A mouse anti-human Fc (GE Healthcare) was immobilized onto all flow cells of a CM5 sensor chip using amine coupling kit (GE Healthcare). Antibodies were captured onto the anti-human Fc sensor surfaces to around 20RU capture level, then recombinant latent TGF-beta 1 of human, cyno, and mouse was injected over the flow cell. All antibodies and analytes were prepared in ACES pH 7.4 containing 20 mM ACES, 150 mM NaCl, 0.05% Tween 20, 0.005% NaN₃. Sensor surface was regenerated each cycle with 3M MgCl₂.

[2] = target: T2, FLAG-tagged mouse latent TGF-beta 1 (mouse, UniProt P04202 34-390); assay: as above
T2 construct: Co-expressed with human furin; also called mouse latent TGF-beta 1 (SLC); mSLC
Experimental: as §1

[3] = target: T1, FLAG-tagged human latent TGF-beta 1; assay: SPR (BIACORE 8K), antibody captured on anti-human Fc, antigen as analyte, pH 5.8
[4] = target: T2, FLAG-tagged mouse latent TGF-beta 1; assay: as above
[5] = target: T1, FLAG-tagged human latent TGF-beta 1; assay: SPR (BIACORE), antibody captured on anti-human Fc, antigen as analyte, pH 7.4
[6] = target: T2, FLAG-tagged mouse latent TGF-beta 1; assay: as above
[7] = target: T3, Cyno latent TGF-beta 1 (Cys at the 30th position substituted with Ser (C33S mutation)); assay: SPR (BIACORE 8K), ratio calculated from FIGS. 5 and 6
T3 construct: The first reading lists it only inside the group m5; also called FLAG-tagged cynomolgus monkey latent TGF-beta 1; monkey latent TGF-beta 1 (SLC)

[8] = target: T1, FLAG-tagged human latent TGF-beta 1; assay: as above
[9] = target: T2, FLAG-tagged mouse latent TGF-beta 1; assay: as above
[10] = target: T3, Cyno latent TGF-beta 1; assay: SPR (BIACORE 8K), antibody captured on anti-human Fc, antigen as analyte, pH 7.4
Experimental: as §1

[11] = target: T3, Cyno latent TGF-beta 1; assay: SPR (BIACORE 8K), antibody captured on anti-human Fc, antigen as analyte, pH 5.8
[12] = target: T4, mouse cell surface latent TGF-beta 1 expressed on Ba/F3 cells (mouse, UniProt P04202 30-390); assay: flow cytometry (FACS) on BaF3 cells, PE anti-human IgG secondary
T4 construct: whole, on cells; also called mouse latent TGF-beta 1
Experimental: (§2) The anti-latent TGF-beta 1 antibodies (10 microgram/mL each) were incubated with each cell line for 30 minutes at 4 degree C. and washed with FACS buffer (2% PBS, 2 mM EDTA in PBS). […] Data acquisition was performed on an FACS Verse (Becton Dickinson), followed by analysis and calculation of Mean Fluorescence Intensity (MFI), using FlowJo (trademark) software (Tree Star) and GraphPad Prism software (GraphPad).

[13] = target: T5, human cell surface latent TGF-beta 1 expressed on FreeStyle 293-F cells (human, UniProt P01137 30-390); assay: flow cytometry (FACS) on FreeStyle 293-F cells, PE anti-human IgG secondary
T5 construct: whole, on cells; also called human latent TGF-beta 1
Experimental: as §2

T3 sequence (latent TGF-beta 1 (LAP and mature TGF-beta 1), as listed by the source): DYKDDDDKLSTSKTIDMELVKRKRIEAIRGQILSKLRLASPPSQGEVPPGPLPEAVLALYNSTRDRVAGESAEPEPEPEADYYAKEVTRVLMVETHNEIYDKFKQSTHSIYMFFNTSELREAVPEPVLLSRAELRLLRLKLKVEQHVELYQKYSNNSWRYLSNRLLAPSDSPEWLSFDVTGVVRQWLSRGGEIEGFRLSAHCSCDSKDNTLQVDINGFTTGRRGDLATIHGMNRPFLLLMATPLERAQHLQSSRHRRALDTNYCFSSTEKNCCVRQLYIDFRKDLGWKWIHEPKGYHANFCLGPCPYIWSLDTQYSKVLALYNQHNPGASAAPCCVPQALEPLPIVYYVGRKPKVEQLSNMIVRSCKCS

Kd [1]: 2.29 nM | Kd [2]: 3.67 nM | Kd [3]: 309 nM | Kd [4]: 346 nM
B1: hT0947AE34-SG191 (antibody, human IgG1, V domains shown)
VH: QVQLVESGGGVVQPGRSLRLSCAASGFHFSSEAMNWIRQPPGKGLEWIGYIYTSGTTYRANWARGRFTISRDNSKNTLYLQMNSLRAEDTAVYYCARGWHIFDHHYWVMHAWGQGTLVTVSS
VL: DIQMTQSPSSLSASVGDRVTITCQASQSISTYLAWYQQKPGQPPKLLIYAASTLEYGVPSRFSGSGSGTDFTLTISSLQPEDFATYYCQSYSDGDSVIFGQGTKVEIKR
notes: Human IgG1, SG191; also called hT0497AE34-SG191

Kd [5]: 3.33 nM | koff [5]: 0.0012 s⁻¹ | kon [5]: 361000 M⁻¹ s⁻¹ | Kd [6]: 5.34 nM | koff [6]: 0.00864 s⁻¹ | kon [6]: 1.62e+06 M⁻¹ s⁻¹
B2: hT0947AE26-SG181 (antibody, human IgG1, kappa, V domains shown)
VH: B1 VH with S31N, A60S, D103G, H105Q, A111F
VL: B1 VL with L33E, Y56S, I98K
notes: Human IgG1; Heavy chain = VH + CH, light chain = VL + CL

Kd [5]: 3.88 nM | koff [5]: 0.00152 s⁻¹ | kon [5]: 391000 M⁻¹ s⁻¹ | Kd [6]: 4.48 nM | koff [6]: 0.0353 s⁻¹ | kon [6]: 7.89e+06 M⁻¹ s⁻¹
B3: hT0947AE25-SG181 (antibody, human IgG1, kappa, V domains shown)
VH: B1 VH with S31N, A60S, D103G, H105Q, A111F
VL: B1 VL with L33E, Y56S, I98G
notes: as for B2

Kd [5]: 3.25 nM | koff [5]: 0.00108 s⁻¹ | kon [5]: 333000 M⁻¹ s⁻¹ | Kd [6]: 4.19 nM | koff [6]: 0.00187 s⁻¹ | kon [6]: 445000 M⁻¹ s⁻¹
B4: hT0947AE23-SG181 (antibody, human IgG1, kappa, V domains shown)
VH: B1 VH with S31R, W99T, I101L, D103G, A111S
VL: B1 VL with I98V
notes: as for B2

Kd [1]: 3.93 nM | Kd [2]: 5.43 nM | Kd [3]: 482 nM | Kd [4]: 803 nM
B5: hT0947AE27-SG191 (antibody, human IgG1, V domains shown)
VH: B1 VH with S31N, S54T, D103G, A111F
VL: B1 VL with S28R, L33V, Y56S
notes: Human IgG1, SG191; also called hT0497AE27-SG191

Kd [1]: 1.32 nM | Kd [2]: 3.61 nM | Kd [3]: 222 nM | Kd [4]: 1570 nM
B6: hT0947AE37-SG191 (antibody, human IgG1, V domains shown)
VH: B1 VH with T53V, N61D, D103G
VL: B1 VL with Q27E, Y56S
notes: Human IgG1, SG191; also called hT0497AE37-SG191

KD ratio pH5.8/pH7.4 [7]: 113 | koff ratio pH5.8/pH7.4 [7]: 55.3 | KD ratio pH5.8/pH7.4 [8]: 103 | koff ratio pH5.8/pH7.4 [8]: 51.7 | KD ratio pH5.8/pH7.4 [9]: 131 | koff ratio pH5.8/pH7.4 [9]: 44.2 | Kd [10]: 3.78 nM | koff [10]: 0.001 s⁻¹ | kon [10]: 266000 M⁻¹ s⁻¹ | Kd [1]: 3.84 nM | koff [1]: 0.00104 s⁻¹ | kon [1]: 271000 M⁻¹ s⁻¹ | Kd [2]: 5.12 nM | koff [2]: 0.00242 s⁻¹ | kon [2]: 472000 M⁻¹ s⁻¹ | Kd [11]: 427 nM | koff [11]: 0.0553 s⁻¹ | kon [11]: 129000 M⁻¹ s⁻¹ | Kd [3]: 395 nM | koff [3]: 0.0538 s⁻¹ | kon [3]: 136000 M⁻¹ s⁻¹ | Kd [4]: 669 nM | koff [4]: 0.107 s⁻¹ | kon [4]: 160000 M⁻¹ s⁻¹
B7: hT0947AE20-SG191 (antibody, human IgG1)
heavy: QVQLVESGGGVVQPGRSLRLSCAASGFLFSREAMNWIRQPPGKGLEWIGYIYTSGTTYRANWARGRFTISRDNSKNTLYLQMNSLRAEDTAVYYCARGWHIFGHQYWVMHFWGQGTLVTVSSASTKGPSVFPLAPSSKSTSGGTAALGCLVKDYFPEPVTVSWNSGALTSGVHTFPAVLQSSGLYSLSSVVTVPSSSLGTQTYICNVNHKPSNTKVDKRVEPKSCDKTHTCPPCPAPELRRGPSVFLFPPKPKDTLMISRTPEVTCVVVDVSHEDPEVKFNWYVDGVEVHNAKTKPREEQYNSTYRVVSVLTVLHQDWLNGKEYKCKVSNKALPAPIEKTISKAKGQPREPQVYTLPPSREEMTKNQVSLTCLVKGFYPSDIAVEWESNGQPENNYKTTPPVLDSDGSFFLYSKLTVDKSRWQQGNVFSCSVLHEALHAHYTRKELSLSP
light: DIQMTQSPSSLSASVGDRVTITCQASQSISTYEAWYQQKPGQPPKLLIYAASTLESGVPSRFSGSGSGTDFTLTISSLQPEDFATYYCQSYSDGDSVIFGQGTKVEIKRTVAAPSVFIFPPSDEQLKSGTASVVCLLNNFYPREAKVQWKVDNALQSGNSQESVTEQDSKDSTYSLSSTLTLSKADYEKHKVYACEVTHQGLSSPVTKSFNRGEC
notes: Human IgG1, SG191; also called hT0497AE20-SG191

Kd [5]: 2.95 nM | koff [5]: 0.00111 s⁻¹ | kon [5]: 377000 M⁻¹ s⁻¹ | Kd [6]: 4.39 nM | koff [6]: 0.00294 s⁻¹ | kon [6]: 670000 M⁻¹ s⁻¹
B8: hT0947AE20-SG181 (antibody, human IgG1, kappa)
heavy: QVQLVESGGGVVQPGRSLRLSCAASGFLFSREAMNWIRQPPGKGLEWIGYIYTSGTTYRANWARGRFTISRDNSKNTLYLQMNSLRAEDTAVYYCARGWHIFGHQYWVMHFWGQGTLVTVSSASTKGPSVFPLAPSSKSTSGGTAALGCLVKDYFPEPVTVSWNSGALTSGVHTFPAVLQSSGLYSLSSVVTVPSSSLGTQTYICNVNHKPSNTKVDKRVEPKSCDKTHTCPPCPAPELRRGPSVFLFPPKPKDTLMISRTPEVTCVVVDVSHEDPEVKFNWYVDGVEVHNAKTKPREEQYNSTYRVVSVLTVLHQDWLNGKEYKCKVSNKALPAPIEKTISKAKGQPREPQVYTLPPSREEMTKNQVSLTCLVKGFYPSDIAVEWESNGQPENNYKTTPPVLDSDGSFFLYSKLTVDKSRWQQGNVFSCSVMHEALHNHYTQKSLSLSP
light: B7 light
notes: Human IgG1

Kd [5]: 1.02 nM | Kd [6]: 1.04 nM
B9: hT0947AE07-SG181 (antibody, human IgG1, kappa)
heavy: not shown
light: B7 light with E33L, I98G
notes: Human IgG1; Heavy chain = VH + CH, light chain = VL + CL; also called non-pH dependent anti-human latent TGF-beta 1 antibody

Kd [5]: 2.55 nM | koff [5]: 0.001 s⁻¹ | kon [5]: 393000 M⁻¹ s⁻¹ | Kd [6]: 7.03 nM | koff [6]: 0.00441 s⁻¹ | kon [6]: 627000 M⁻¹ s⁻¹
B10: hT0947AE24-SG181 (antibody, human IgG1, kappa, V domains shown)
VH: B1 VH with D103G, A111F
VL: B1 VL with Y56W, I98G
notes: as for B2

Kd [5]: 3.6 nM | koff [5]: 0.00124 s⁻¹ | kon [5]: 344000 M⁻¹ s⁻¹ | Kd [6]: 5.76 nM | koff [6]: 0.00376 s⁻¹ | kon [6]: 653000 M⁻¹ s⁻¹
B11: hT0947AE22-SG181 (antibody, human IgG1, kappa, V domains shown)
VH: B1 VH with S31R, D103G, A111F
VL: B1 VL with Y56S
notes: as for B2

Kd [6]: 16.6 nM
B12: T0947H0053H0156-SG181/T0947L001L0049-SK1 (antibody, human IgG1, kappa, V domains shown)
VH: B1 VH with H28T, W99T, F102Y, H105Y, M109H, A111L
VL: B1 VL with Y56S, I98G
notes: Human IgG1; also called the pH dependent antibody; parent pH-dependent anti human latent TGF-beta 1 antibody

binding result [12]: no binding (tested: 10 microgram/mL) | binding result [13]: no binding (tested: 10 microgram/mL)
B13: Anti-KLH antibody IC17dK-SG181 (antibody, human IgG1, kappa, V domains shown)
VH: QVQLQQSGPQLVRPGASVKISCKASGYSFTSYWMHWVNQRPGQGLEWIGMIDPSYSETRLNQKFKDKATLTVDKSSSTAYMQLSSPTSEDSAVYYCALYGNYFDYWGQGTTLTVSS
VL: DIQMTQSSSSFSVSLGDRVTITCKASEDIYNRLAWYQQKPGNAPRLLISGATSLETGVPSRFSGSGSGKDYTLSITSLQTEDVATYYCQQYWSTPYTFGGGTKLEVKR
notes: Anti-KLH antibody with a human IgG1 Fc region, used as negative control; also called negative control antibody
